According to US20240383988A1:

Tests used:
human EGFR (human) [1] = target: human EGFR (human) (UniProt P00533); test: kinetics table of FIG. 2 (SPR is told in paragraph 123 for the other clones of the table); column head 10^5 (s-1M-1)
human EGFR (human) [2] = target: human EGFR (human) (UniProt P00533); test: kinetics table of FIG. 2 (SPR is told in paragraph 123 for the other clones of the table); column head 10^-4 (s-1)

- kon (human EGFR (human) [1]): 280000 M⁻¹ s⁻¹
- koff (human EGFR (human) [2]): 5e-05 s⁻¹
B1: ER-2b (antibody, part only; not given: common light chain, V domains shown, part only)
VH: EVQLVESGGGLVQPGGSLRLSCAASGFNIYYAAMHWVRQAPGKGLEWVAFISPYYSYTSYADSVKGRFTISADTSKNTAYLQMNSLRAEDTAVYYCARYFHSSWYESSSPRAYYPGMDYWGQGTLVTVSS
